In series [1] the test system is T1, Mca-Ala-Pro-(Dnp)Lys-OH (AnaSpec MIPH1).
T1 sequence: APK
Kind of series: fluorogenic substrate cleavage by purified ACE-2, microtitre plate.

Series [2] relates to T2, Mca-Tyr-Val-Ala-Asp-Ala-Pro-(Dnp)Lys-OH (Caspase 1 substrate, Bachem M-2195).
T2 sequence: YVADAPK
The description is as above.

The subject of series [3] is T1, Mca-Ala-Pro-(Dnp)Lys-OH (AnaSpec MIPH1).
Series [4] deals with T2, Mca-Tyr-Val-Ala-Asp-Ala-Pro-(Dnp)Lys-OH (Caspase 1 substrate, Bachem M-2195).
Another series addresses Neurotensin (1-13) (UniProt P30990).

As to “secreted ACE-2 purified from CHO K1 cell supernatant (expression vector pMD37)”, the Km in series [1] was 340 µM; in series [2], 130 µM. The “hydrolysis followed by mass spectroscopy” value in the series on (Des-Arg^9) Bradykinin was “ACE-2 can hydrolyze des-Arg bradykinin”; in the series on Angiotensin I(1-10) it was “When treated with ACE-2, mass spectroscopy data shows that Angiotensin I (1-10) is converted to Angiotensin I (1-9)”; in series [4], “ACE-2 hydrolysed this substance between the P1 proline and P1′ (DNP)Lys”; with Neurotensin (1-13), “ACE-2 hydrolyzes Neurotensin (1-13) to Neurotensin (1-12)”. In addition, the kcat/Km in series [3] was determined as 230000 M⁻¹ s⁻¹; in series [4], 42000 M⁻¹ s⁻¹.

Usually Km stands for the concentration of substrate that gives half-maximal velocity. The kcat/Km is the turnover number divided by the Michaelis constant.

The values are drawn from patent US20040082496.
